This series concerns the molecule itself. Briefly: negative stain TEM.

B1: IsiA protein of Synechocystis sp. PCC 6803 (natural protein)
chain: not shown
Regarding B1, the “stoichiometry N” value came to 18.

The values above are taken from paper PMC6699766 (Nature plants, 2019).
